{
  "source": "patent US20150071855A1",
  "about": "(LONDON HEALTH SCIENCES CENTRE RESEARCHING, published 2015)",
  "binders": {"B1": {"name": "GSLLVHSFQQLG (peptide)", "peptide": "GSLLVHSFQQLG", "notes": "Immobilised on gold spots for the SPR imaging study; also called LCE71; LCE77"}},
  "molecular_target": "T1, recombinant GST-EGFL7 protein (UniProt Q9UHF1 24-273)",
  "T1 construct": "Expressed in Sf21 insect cells by baculovirus and purified on glutathione-agarose; The sense primer encodes MRGSQEV, which fits human EGFL7; also called purified EGFL7 protein; recombinant EGFL7; not shown: glutathione-S-transferase (GST) tag from the pDEST20 plasmid (Invitrogen); TEV site/linker region carried over from pENTR/TEV/D-TOPO",
  "T1 sequence (looked up)": "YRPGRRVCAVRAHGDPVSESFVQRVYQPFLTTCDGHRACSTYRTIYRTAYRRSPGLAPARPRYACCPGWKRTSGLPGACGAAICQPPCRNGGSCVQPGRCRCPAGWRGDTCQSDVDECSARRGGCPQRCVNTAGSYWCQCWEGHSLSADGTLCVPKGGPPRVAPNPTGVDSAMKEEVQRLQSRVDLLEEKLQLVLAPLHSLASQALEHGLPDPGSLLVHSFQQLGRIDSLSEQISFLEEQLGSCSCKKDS",
  "assay": "SPR imaging (GWC); peptide immobilised on gold spots, purified EGFL7 protein in solution; fit with 'association then dissociation' in GraphPad Prism",
  "protocol": "Peptides were immobilized onto gold spots using standard protocols from the GWC manual. Peptides were then exposed to 500 μL of purified EGFL7 protein. The % change in reflectivity (% R) for each of the spots containing the peptides was collected using V++ Precision Digital Imaging Systems, version 5.0 software and the dissociation constants (KD) were calculated using the ‘association then dissociation’ equation in GraphPad Prism, version 5.0.",
  "data": [
    {"binder": "B1", "values": [
      {"measurement": "Kd", "result": 14.7, "unit": "nM"}
    ]}
  ]
}
